B1: unnamed (parent)
chain 1: PALTPSLGAKPKPQVLSDSGGPLIDLLTEDPPPYRDPRPPPSDRDGNGGEATPAGEAPDPSPMASRLRGRREPPVADSTTSQAF
chain 2: MLNMWKVRELVDKATNVVMNYSEIESKVREATNDDPWGPSGQLMGEIAKATFMYEQFPELMNMLWSRMLKDNKKNWRRVYKSLLLLAYLIRNGSERVVTSAREHIYDLRSLENYHFVDEHGKDQGINIRQKVKELVEFAQDDDRLREERKKAKKNKDKYVGVSSDSVGGFRYSERYDPEPKSKWDEEWDKNKSAFPFSDKLGELSDKIGSTIDDTISKFRRKDREDSPERCSDSDEEKKARRGRSPKGEFKDEEETVTTKHIHITQATETTTTRHKRTANPSKTIDLGAAAHYTGDKASPDQNASTHTPQSSVKTSVPSSKSSGDLVDLFDGTSQSTGGSADLFGGFADFGSAAASGSFPSQVTATSGNGDFGDWSAFNQAPSGPVASSGEFFGSASQPAVELVSGSQSALGPPPAASNSSDLFDLMGSSQATMTSSQSMNFSMMSTNTVGLGLPMSRSQNTDMVQKSVSKTLPSTWSDPSVNISLDNLLPGMQPSKPQQPSLNTMIQQQNMQQPMNVMTQSFGAVNLSSPSNMLPVRPQTNALIGGPMPMSMPNVMTGTMGMAPLGNTPMMNQSMMGMNMNIGMSAAGMGLTGTMGMGMPNIAMTSGTVQPKQDAFANFANFSK
B2: unnamed (parent)
chain 1: B1 chain 1
chain 2: MAELDPFGAPAGAPGGPALGNGVAGAGEEDPAAAFLAQQESEIAGIENDEAFAILDGGAPGPQPHGEPPGGPDAVDGVMNGEYYQESNGPTDSYAAISQVDRLQSEPESIRKWREEQMERLEALDANSRKQEAEWKEKAIKELEEWYARQDEQLQKTKANNRVADEAFYKQPFADVIGYVTNINHPCYSLEQAAEEAFVNDIDESSPGTEWERVARLCDFNPKSSKQAKDVSRMRSVLISLKQAPLVH
B3: unnamed (parent)
chain 1: B1 chain 1
chain 2: MAQISSNSGFKECPSSHPEPTRAKDVDKEEALQMEAEALAKLQKDRQVTDNQRGFELSSSTRKKAQVYNKQDYDLMVFPESDSQKRALDIDVEKLTQAELEKLLLDDSFETKKTPVLPVTPILSPSFSAQLYFRPTIQRGQWPPGLPGPSTYALPSIYPSTYSKQAAFQNGFNPRMPTFPSTEPIYLSLPGQSPYFSYPLTPATPFHPQGSLPIYRPVVSTDMAKLFDKIASTSEFLKNGKARTDLEITDSKVSNLQVSPKSEDISKFDWLDLDPLSKPKVDNVEVLDHEEEKNVSSLLAKDPWDAVLLEERSTANCHLERKVNGKSLSVATVTRSQSLNIRTTQLAKAQGHISQKDPNGTSSLPTGSSLLQEVEVQNEEMAAFCRSITKLKTKFPYTNHRTNPGYLLSPVTAQRNICGENASVKVSIDIEGFQLPVTFTCDVSSTVEIIIMQALCWVHDDLNQVDVGSYVLKVCGQEEVLQNNHCLGSHEHIQNCRKWDTEIRLQLLTFSAMCQNLARTAEDDETPVDLNKHLYQIEKPCKEAMTRHPVEELLDSYHNQVELALQIENQHRAVDQVIKAVRKICSALDGVETLAITESVKKLKRAVNLPRSKTADVTSLFGGEDTSRSSTRGSLNPENPVQVSINQLTAAIYDLLRLHANSGRSPTDCAQSSKSVKEAWTTTEQLQFTIFAAHGISSNWVSNYEKYYLICSLSHNGKDLFKPIQSKKVGTYKNFFYLIKWDELIIFPIQISQLPLESVLHLTLFGILNQSSGSSPDSNKQRKGPEALGKVSLPLFDFKRFLTCGTKLLYLWTSSHTNSVPGTVTKKGYVMERIVLQVDFPSPAFDIIYTTPQVDRSIIQQHNLETLENDIKGKLLDILHKDSSLGLSKEDKAFLWEKRYYCFKHPNCLPKILASAPNWKWVNLAKTYSLLHQWPALYPLIALELLDSKFADQEVRSLAVTWIEAISDDELTDLLPQFVQALKYEIYLNSSLVQFLLSRALGNIQIAHNLYWLLKDALHDVQFSTRYEHVLGALLSVGGKRLREELLKQTKLVQLLGGVAEKVRQASGSARQVVLQRSMERVQSFFQKNKCRLPLKPSLVAKELNIKSCSFFSSNAVPLKVTMVNADPMGEEINVMFKVGEDLRQDMLALQMIKIMDKIWLKEGLDLRMVIFKCLSTGRDRGMVELVPASDTLRKIQVEYGVTGSFKDKPLAEWLRKYNPSEEEYEKASENFIYSCAGCCVATYVLGICDRHNDNIMLRSTGHMFHIDFGKFLGHAQMFGSFKRDRAPFVLTSDMAYVINGGEKPTIRFQLFVDLCCQAYNLIRKQTNLFLNLLSLMIPSGLPELTSIQDLKYVRDALQPQTTDAEATIFFTRLIESSLGSIATKFNFFIHNLAQLRFSGLPSNDEPILSFSPKTYSFRQDGRIKEVSVFTYHKKYNPDKHYIYVVRILREGQIEPSFVFRTFDEFQELHNKLSIIFPLWKLPGFPNRMVLGRTHIKDVAAKRKIELNSYLQSLMNASTDVAECDLVCTFFHPLLRDEKAEGIARSADAGSFSPTPGQIGGAVKLSISYRNGTLFIMVMHIKDLVTEDGADPNPYVKTYLLPDNHKTSKRKTKISRKTRNPTFNEMLVYSGYSKETLRQRELQLSVLSAESLRENFFLGGVTLPLKDFNLSKETVKWYQLTAATYL
B4: unnamed (parent)
chain 1: B1 chain 1
chain 2: MAQILPIRFQEHLQLQNLGINPANIGFSTLTMESDKFICIREKVGEQAQVVIIDMNDPSNPIRRPISADSAIMNPASKVIALKAGKTLQIFNIEMKSKMKAHTMTDDVTFWKWISLNTVALVTDNAVYHWSMEGESQPVKMFDRHSSLAGCQIINYRTDAKQKWLLLTGISAQQNRVVGAMQLYSVDRKVSQPIEGHAASFAQFKMEGNAEESTLFCFAVRGQAGGKLHIIEVGTPPTGNQPFPKKAVDVFFPPEAQNDFPVAMQISEKHDVVFLITKYGYIHLYDLETGTCIYMNRISGETIFVTAPHEATAGIIGVNRKGQVLSVCVEEENIIPYITNVLQNPDLALRMAVRNNLAGAEELFARKFNALFAQGNYSEAAKVAANAPKGILRTPDTIRRFQSVPAQPGQTSPLLQYFGILLDQGQLNKYESLELCRPVLQQGRKQLLEKWLKEDKLECSEELGDLVKSVDPTLALSVYLRANVPNKVIQCFAETGQVQKIVLYAKKVGYTPDWIFLLRNVMRISPDQGQQFAQMLVQDEEPLADITQIVDVFMEYNLIQQCTAFLLDALKNNRPSEGPLQTRLLEMNLMHAPQVADAILGNQMFTHYDRAHIAQLCEKAGLLQRALEHFTDLYDIKRAVVHTHLLNPEWLVNYFGSLSVEDSLECLRAMLSANIRQNLQICVQVASKYHEQLSTQSLIELFESFKSFEGLFYFLGSIVNFSQDPDVHFKYIQAACKTGQIKEVERICRESNCYDPERVKNFLKEAKLTDQLPLIIVCDRFDFVHDLVLYLYRNNLQKYIEIYVQKVNPSRLPVVIGGLLDVDCSEDVIKNLILVVRGQFSTDELVAEVEKRNRLKLLLPWLEARIHEGCEEPATHNALAKIYIDSNNNPERFLRENPYYDSRVVGKYCEKRDPHLACVAYERGQCDLELINVCNENSLFKSLSRYLVRRKDPELWGSVLLESNPYRRPLIDQVVQTALSETQDPEEVSVTVKAFMTADLPNELIELLEKIVLDNSVFSEHRNLQNLLILTAIKADRTRVMEYINRLDNYDAPDIANIAISNELFEEAFAIFRKFDVNTSAVQVLIEHIGNLDRAYEFAERCNEPAVWSQLAKAQLQKGMVKEAIDSYIKADDPSSYMEVVQAANTSGNWEELVKYLQMARKKARESYVETELIFALAKTNRLAELEEFINGPNNAHIQQVGDRCYDEKMYDAAKLLYNNVSNFGRLASTLVHLGEYQAAVDGARKANSTRTWKEVCFACVDGKEFRLAQMCGLHIVVHADELEELINYYQDRGYFEELITMLEAALGLERAHMGMFTELAILYSKFKPQKMREHLELFWSRVNIPKVLRAAEQAHLWAELVFLYDKYEEYDNAIITMMNHPTDAWKEGQFKDIITKVANVELYYRAIQFYLEFKPLLLNDLLMVLSPRLDHTRAVNYFSKVKQLPLVKPYLRSVQNHNNKSVNESLNNLFITEEDYQALRTSIDAYDNFDNISLAQRLEKHELIEFRRIAAYLFKGNNRWKQSVELCKKDSLYKDAMQYASESKDTELAEELLQWFLQEEKRECFGACLFTCYDLLRPDVVLETAWRHNIMDFAMPYFIQVMKEYLTKVDKLDASESLRKEEEQATETQPIVYGQPQLMLTAGPSVAVPPQAPFGYGYTAPPYGQPQPGFGYSM

Variants of: B1
Assay: SILAC-MS of GST pull-down
Details: with partner chain of the complex shown; mitotic 293T cell lysates; replicate R1

Variant	screen value (SDs from the mean)
chain 1 S65A R66A L67A R68A G69A	1.4

Same assay, conditions: with partner chain of the complex shown; mitotic 293T cell lysates; replicate R2

Variant	screen value (SDs from the mean)
chain 1 S65A R66A L67A R68A G69A	3.3

Variants of: B2
Assay: SILAC-MS of GST pull-down
Details: with partner chain of the complex shown; mitotic 293T cell lysates; replicate R2

Variant	screen value (SDs from the mean)
chain 1 S65A R66A L67A R68A G69A	1.4

Variants of: B3
Assay: SILAC-MS of GST pull-down
Details: with partner chain of the complex shown; mitotic 293T cell lysates; replicate R1

Variant	screen value (SDs from the mean)
chain 1 S65A R66A L67A R68A G69A	1.4

Same assay, conditions: with partner chain of the complex shown; mitotic 293T cell lysates; replicate R2

Variant	screen value (SDs from the mean)
chain 1 S65A R66A L67A R68A G69A	1.4

Variants of: B4
Assay: SILAC-MS of GST pull-down
Details: with partner chain of the complex shown; mitotic 293T cell lysates; replicate R1

Variant	screen value (SDs from the mean)
chain 1 S65A R66A L67A R68A G69A	1

Same assay, conditions: with partner chain of the complex shown; mitotic 293T cell lysates; replicate R2

Variant	screen value (SDs from the mean)
chain 1 S65A R66A L67A R68A G69A	2.3
